Test results reported in patent publication US20250011413A1 (MCMASTER UNIVERSITY, published 2025).

Experiments:
[1] = biological target: T1, PF4/heparin complex (human PF4 complexed with heparin) (human, UniProt P02776 32-101); experiment: cell-based or functional assay
T1 sequence: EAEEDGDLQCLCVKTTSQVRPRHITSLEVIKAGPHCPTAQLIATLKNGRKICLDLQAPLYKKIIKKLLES

[2] = biological target: T1, PF4/heparin complex (human PF4 …); experiment: competition EIA, scFv 50 µg/mL; competitor HIT-negative sera antibodies, n=10
[3] = biological target: T1, PF4/heparin complex (human PF4 …); experiment: BLI (Octet), biotinylated PF4/heparin on streptavidin sensors, scFv 1 µg/mL, 1:1 model
Description: (§1) The Octet-QK Red 96 (FortéBio, Menlo Park, CA) instrumentation was used to conduct all BLI experiments. A 96-well microtiter plate (black, flat-bottom) was used to hold 200 μL per well of either sample or buffer. Pre-coated streptavidin biosensor tips (FortéBio) were hydrated in phosphate buffered saline (PBS) containing 1% bovine serum albumin (BSA, Sigma-Aldrich) before performing all kinetic assays. Each step was performed at an operating temperature of 23° C. with agitation at 1000 rpm. Streptavidin tips were first equilibrated in PBS+1% BSA to establish a baseline. […] The PF4-coated tips were then dipped into PBS+1% BSA for 13 minutes to re-establish a baseline. Tips were then incubated in an analyte solution containing half-fold dilutions of wildtype scFv (4.0, 2.0, 1.0, 0.5, 0.25 μg/mL in PBS+1% BSA) for 10 minutes to measure association. For mutant scFv association, tips were incubated in an analyte solution containing 200 μL of each mutant and wildtype scFv at a final concentration of 1 μg/mL in PBS+1% BSA. Antibody dissociation steps were performed by dipping sensors in wells containing PBS+1% BSA for 56 minutes. The following negative controls included in these kinetic experiments were also measured: 200 μL of buffer to replace both the antigen and scFv and 200 μL buffer replacing scFv only. Each experiment was performed with PF4 or with PF4/heparin as the immobilized antigen.
(§2) BLI experiments were performed to evaluate binding responses and affinities of wildtype and mutant scFv. Biotinylated PF4 alone or complexed with heparin was immobilized on streptavidin biosensors and used to capture wildtype scFv. Half-fold serial dilutions of wildtype scFv ranging from 0.25 μg/mL to 4 μg/mL were used to determine the optimal concentrations for future experiments PF4 (PF4 FIG. 3; PF4/heparin FIG. 4).

[4] = biological target: T2, Human PF4 (CXCL4), biotinylated, without heparin (human, UniProt P02776 32-101, biotinylated with EZ-link-Sulfo-NHS-LC-Biotin (sites not given)); experiment: BLI (Octet), biotinylated PF4 without heparin on streptavidin sensors, scFv 1 µg/mL, 1:1 model
T2 construct: Immobilised on streptavidin biosensors for BLI; also called PF4 alone; platelet factor 4
T2 sequence: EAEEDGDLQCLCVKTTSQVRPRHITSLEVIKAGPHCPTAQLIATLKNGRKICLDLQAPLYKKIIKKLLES
Description: as §1, §2

[5] = biological target: T1, PF4/heparin complex (human PF4 …); experiment: BLI (Octet), biotinylated PF4/heparin on streptavidin sensors, 1:1 model; scFv at 1.0 µg/mL
Description: as §1, §2

[6] = biological target: T1, PF4/heparin complex (human PF4 …); experiment: BLI (Octet), biotinylated PF4/heparin on streptavidin sensors, 1:1 model; scFv at 2.0 µg/mL
Description: as §1, §2

[7] = biological target: T2, Human PF4 (CXCL4), biotinylated, …; experiment: BLI (Octet), biotinylated PF4 without heparin on streptavidin sensors, 1:1 model; scFv at 2.0 µg/mL
Description: as §1, §2

[8] = biological target: T2, Human PF4 (CXCL4), biotinylated, …; experiment: BLI (Octet), biotinylated PF4 without heparin on streptavidin sensors, 1:1 model; scFv at 4.0 µg/mL
Description: as §1, §2

[9] = biological target: T1, PF4/heparin complex (human PF4 …); experiment: BLI (Octet), biotinylated PF4/heparin on streptavidin sensors, scFv at 1 µg/mL, 1:1 model, mean ± s.d.
Description: BLI experiments were performed using wildtype scFv, mutant B, mutant C, mutant D, mutant E, and mutant F at 1 μg/mL. Binding was measured against immobilized biotinylated PF4/heparin complexes on streptavidin biosensors. b) Table showing kinetic data of wildtype and mutant scFv, including binding responses and association and dissociation rates. All data was analyzed based on a 1:1 homogenous ligand binding model using Octet®) User Software version 3.1.
as §1
(§3) BLI experiments were performed to evaluate binding responses and affinities of wildtype and mutant scFv. Biotinylated PF4 alone or complexed with heparin was immobilized on streptavidin biosensors and used to capture wildtype scFv.

[10] = biological target: T2, Human PF4 (CXCL4), biotinylated, …; experiment: BLI (Octet), biotinylated PF4 without heparin on streptavidin sensors, scFv at 1 µg/mL, 1:1 model, mean ± s.d. [cont.) b]
Description: BLI experiments were performed using wildtype scFv, mutant B, mutant C, mutant D, mutant E, and mutant F at 1 μg/mL. Binding was measured against immobilized biotinylated PF4 on streptavidin biosensors. b) Table showing kinetic data of wildtype and mutant scFv, including binding responses and association and dissociation rates. All data was analyzed based on a 1:1 homogenous ligand binding model using Octet® User Software version 3.1.
as §1, §3

B1: Wildtype scFv (KKO-derived single chain variable fragment) (scFv)
scFv: DIQMIQSQKFMSTSVGDRVTVTCKASQNVGTNVAWYQQKPGQSPNALIYSASYRYSGVPDRFTGSGSGTDFTLTITNVQSEDLADYFCQQYNSYPLTFGTGTKLDLKGGGGSGGGGSGGGGSVQLQQSGAELVKPGASVKLSCKASGYTFTNYFIYWVKQRPGQGLEWIGEINPRNGDTDFNEKFESRATLTVDKSSSTAYMQLSSLTSEDSAIYYCTRSPYGNNYGFTYWGQGTLVTVSA
notes: VL-(G4S)3 linker-VH; expressed in E. coli BL21 from pADL-22c, purified on Ni-NTA as histidine-tagged scFv, about 28 kDa; also called WT; KKO-scFv; not shown: histidine tag from the pADL-22c vector
- % inhibition of 14C-serotonin release (SRA), HIT-Positive Patient #1 serum, scFv 50 µg/mL [1]: 15.6%
- % inhibition of 14C-serotonin release (SRA), HIT-Positive Patient #1 serum, scFv 75 µg/mL [1]: 17.8%
- % inhibition of 14C-serotonin release (SRA), HIT-Positive Patient #2 serum, scFv 50 µg/mL [1]: 37.2%
- % inhibition of 14C-serotonin release (SRA), HIT-Positive Patient #2 serum, scFv 75 µg/mL [1]: 15.4%
- % inhibition of 14C-serotonin release (SRA), HIT-Positive Patient #3 serum, scFv 50 µg/mL [1]: 4.8%
- % inhibition of 14C-serotonin release (SRA), HIT-Positive Patient #3 serum, scFv 75 µg/mL [1]: 12%
- % inhibition of 14C-serotonin release (SRA), HIT-Positive Patient #4 serum, scFv 50 µg/mL [1]: 6.7%
- % inhibition of 14C-serotonin release (SRA), HIT-Positive Patient #4 serum, scFv 75 µg/mL [1]: 4.4%
- % inhibition of 14C-serotonin release (SRA), HIT-Positive Patient #5 serum, scFv 50 µg/mL [1]: -6.9%
- % inhibition of 14C-serotonin release (SRA), HIT-Positive Patient #5 serum, scFv 75 µg/mL [1]: 20.8%
- mean % inhibition of serum antibody binding [2]: -38.3%
- Kd [3]: 5.38 nM
- Kd [4]: 1320 nM
- Kd [5]: 0.961 nM
- koff [5]: 0.000264 s⁻¹
- kon [5]: 274000 M⁻¹ s⁻¹
- Kd [6]: 9.18 nM
- koff [6]: 0.000571 s⁻¹
- kon [6]: 62100 M⁻¹ s⁻¹
- Kd [7]: 9.59 nM
- koff [7]: 0.000515 s⁻¹
- kon [7]: 53800 M⁻¹ s⁻¹
- Kd [8]: 24.1 nM
- koff [8]: 0.000596 s⁻¹
- kon [8]: 24800 M⁻¹ s⁻¹
- koff [9]: 0.000519 s⁻¹
- kon [9]: 96700 M⁻¹ s⁻¹
- koff [10]: 0.00255 s⁻¹
- kon [10]: 12500 M⁻¹ s⁻¹
